Here are results for four molecules from patent publication US9777041B2, “Protein nanofibers from self-assembling pentamers” (New York University, priority 2013, dated 2017).

Data set [1] in a line: Curcumin binding fluorescence. The conditions noted are these: in the presence of Zn^2+. From the text: FIG. 40. Fluorescence of C and Q or with incorporated trifluoroleucine/TFL (C TFL and Q TFL) in the presence of no metal, Ni (II), or Zn (II) and curcumin. An increase in fluorescence indicates structural stability of the protein as it is able to bind with curcumin, the fluorescent probe in this case.

Data set [2] in a line: ATR-FTIR secondary structure of solid-state protein. The format is physicochemical. As to conditions: 10 μM protein in 50 mM PB. The procedure: Attenuated Total Reflectance Fourier Transform Infrared Spectroscopy (ATR-FTIR): ATR-FTIR experiments were performed using Perkin Elmer System 2000 FT-IR with DuraSamplIR II T diamond ATR accessory and equipped with a MCT-A detector. Approximately, 5 μL of peptide solution (10 μM in 50 mM PB, pH 4, 8, and 10) was added on the diamond ATR surface. The spectrum (128 scans) was measured at room temperature over a range of 4000-400 cm^−1 with 0.5 cm^−1 resolution. PeakFit software was used to process the data, which involved a 2nd derivative zero baseline correction of the amide I region between 1700-1600 cm^−1 and deconvolution of peaks with a Gaussian function. All readings represent the average of two trials.
To quantifying the secondary structure of the protein in its solid-state, ATR-FTIR experiments were conducted to evaluate secondary structure of insoluble Q fibers at pH 4, 8, and 10 (Table 8). The frequency measured in the regions of the amide I and amide II absorptions of a protein correlate to the secondary structural motifs within the protein, and were thereby used to assess conformation of the protein in its solid-state (FIGS. 20a-20d). Secondary structure conformation based on ATR-FTIR data for Q in 50 mM PB at pH 4, 8, and 10, and in the presence of curcumin at a 5:1 molar ratio with Q at pH 4 are shown in […]. Percent composition was determined from relative areas of peaks fit to spectra (FIGS. 20a-20d).
Secondary structure conformation based on ATR-FTIR data for 10 μM protein in 50 mM PB before and after templation of AuNPs is provided in Table 10. Percent composition was determined from relative areas of peaks fit to spectra (see spectra FIGS. 37a-37d, FIGS. 38a-38d).

The nature of data set [3]: Transmission electron microscopy of protein fibers. The format is physicochemical. As to conditions: for fiber formation seen by TEM: pH 4, 50 mM PB. The procedure:
Transmission electron microscopy: A JEOL JEM-1400 transmission electron microscope (TEM) was used to study the supramolecular protein structure. […] After 1 minute, the grids were blotted using filter paper and rinsed with 3-4 drops Milli Q water to remove excess salts from the buffer. After blotting with filter paper, the sample was negatively stained by adding 3 μL of 1% filtered uranyl acetate, blotted using filter paper, and dried at room temperature for 10-15 minutes. ImageJ software was used to measure the fibers dimensions.

Data set [4] can be described thus: Confocal microscopy of protein fibers in the presence of curcumin. The format is physicochemical. The conditions noted are these: protein:curcumin 1:5, 50 mM phosphate buffer pH 4. The procedure: FIGS. 7a-7c show confocal microscopy of CC, Q54, and COMPcc^S wt, in the presence of curcumin. The mixture of protein to curcumin were all at a ratio of 1:5. […] All different proteins are in 50 mM phosphate buffer, pH 4. Protein and curcumin samples were combined and incubated for 12 hours prior to imaging. […] The width of COMPcc^S wt shown in FIG. 7c was determined to be 12.72 μm. […] Overall, Q54 fibers appeared to be more uniform in width, as well as more robust and consistent in fiber formation.
Confocal microscopy: Samples were imaged using a Leica TCS SP2 AOBS confocal microscope system equipped with argon ion and HeNe lasers. A 63×/1.4 NA oil-immersion objective was used for all of the images. Lab-Tek II chambered #1.5 German coverglass system was used as the imaging slide. Curcumin was excited using the 458 nm line of the argon laser, and images were taken with the detection window set between 465 and 560 nm. The pinhole aperture was set at an Airy value of 1.0, which was equivalent to sampling an ˜500 nm vertical z slice of the fiber, as estimated by the axial resolution, rz,confocal≈1.4λcm n/NA^2 (NA, numerical aperture; n, refractive index; λcm, emission wavelength (525 nm)). Interference contrast images were obtained using the Leica tube optics HC 1×/B apparatus with a focusing Bertrand lens. The 3D reconstructions were constructed using ImageJ 64 1.43 in concert with Amira 5.43, employing the Volren 3D rendering routine.

The nature of data set [5]: Circular dichroism wavelength scans (secondary structure). The format is physicochemical. The conditions noted are these: for −θ222 × 10^3 / −θmin × 10^3: 10 μM protein; for random coil / α helices / β sheet: CD, K2D method. The procedure:
(§1) Circular dichroism: Circular dichroism (CD) measurements were conducted on a Jasco J-815 CD spectrometer. Wavelength and temperature scans were conducted with 10 μM (6.3×10^−2 mg/mL) protein concentrations. The wavelength spectrum was measured over a range from 190 to 250 nm with a step size of 1 nm Mean residue ellipticity (MRE) was calculated from raw data according to the procedure described in Gunasekar et al. 2009. Secondary structure analysis of α-helical, β-sheet, and random coil content was calculated with the K2D method using DichroWeb software. Temperature scans of each protein were performed over a range of 20-85° C. with a temperature step of 1° C./min at 222 nm. Scans were also performed at of 2° C./min and 5° C./min to evaluate dependence of thermal melt signatures on scan speed. All measurements were made in duplicates of independently prepared proteins and data represents the average. Thermodynamic properties of wt and Q were determined through analysis of thermal melts. A two-state model was used, where assumptions included monophasic behavior and reversible melting behavior. These assumptions were confirmed experimentally by melting (from 20 to 85° C.) and cooling (from 85 to 20° C.) the proteins. Calculation of thermodynamic parameters including Tm, ΔG°, ΔH°, and ΔS° were performed according to the method described by Greenfield.
To assess the secondary structure of the proteins under acidic as well as neutral and basic conditions in solution, CD measurements were performed. […] The presence of residue P28 towards the center of Q may have influenced the secondary structure, showing decreased helical content when compared to wt at pH 4 and 10 (FIG. 16). The negative control, L, was completely unstructured, devoid of helical content at pH 4 (FIG. 11). […] As the pH increased, the helical content of soluble Q protein increased.
Mean residual ellipticities from circular dichroism measurements at pH 4, 8, and 10 for wt, L, and Q. The data presented in Table 5 represents the average and standard deviation of at least two replicates.
On the technique in general: Circular dichroism is widely used to follow secondary structure.

For data set [6] the following is noted: without any evidence for protofibrils; cited from earlier work.
Data set [7] in a line: Circular dichroism thermal melts at 222 nm, van't Hoff analysis. Type of data set: physicochemical. As to conditions: for Tm: 10 μM protein; for ΔG° (free energy of folding): at 25° C.; for ΔS°: ΔS° = ΔH°/Tm. The procedure:
as §1
Thermodynamic properties were assessed via thermal melt of the proteins at 222 nm. Prior to calculating thermodynamic constants, assumptions of monophasic behavior and melt reversibility were confirmed experimentally for wt and Q at all pHs by melting and cooling proteins (FIGS. 18a-18d). The van't Hoff equation was applied to thermal melts of the proteins in the range of 20-85° C.

As for “C: CC protein, SEQ ID NO:1, variant of COMPcc; coiled-coil forming homopentamers (MRGSHHHHHHGSIEGRAPQMLRELQETNAALQDVRELLRQQVKEITFLKNTSKL)”, the “binding to small molecule (curcumin fluorescence)” value in data set [1] is “substantially increase the binding to small molecule”. In data set [2] (+AuNP (after templation)), the “Random, percent composition” value amounted to 16%; the “α helix, percent composition” value was determined as 30%; the “β sheet, percent composition” value is 54%. In data set [2] (before templation of AuNPs), the “Random, percent composition” value is 28%; the “α helix, percent composition” value came out at 38%; the “β sheet, percent composition” value is 33%. The “fiber formation seen by TEM” value in data set [3] is recorded as “not been observed to form fibers”. In data set [4] (20 mM protein, 100 mM curcumin, 12 hours), the “average width of protein fibers” value is on record as 19.24±12 μm.
Regarding “Qx: variant of Q54 void of the 6×his tag, SEQ ID NO:6 (VKEITFLKNTAPQMLRELQETNAALQDVRELLRQQSKL)”, in data set [2] (+AuNP (after templation)), the “Random, percent composition” value is reported as 20%; the “α helix, percent composition” value is given as 48%; the “β sheet, percent composition” value is listed as 32%. Also, in data set [2] (before templation of AuNPs), the “Random, percent composition” value is reported as 29%; the “α helix, percent composition” value is 45%; the “β sheet, percent composition” value is 26%.
For “L: L44 protein, SEQ ID NO:3, variant of COMPcc; negative control swap protein (MRGSHHHHHHGSIEGRLQDVERLLRQQVKEITFLKNTAPQMLRELQETNAASKL) [reference compound]”, in data set [5] (pH 4), the “−θ222 × 10^3” value is given as −0.41 10^3 deg cm^2 dmol^-1, the “−θmin × 10^3” value is reported as 5.18 10^3 deg cm^2 dmol^-1, the random coil worked out at 43% and the α helices worked out at 9%. Moreover, in data set [5] (pH 4), the β sheet is listed as 49%. Also, in data set [5] (pH 8), the “−θ222 × 10^3” value is given as 3.54 10^3 deg cm^2 dmol^-1, the “−θmin × 10^3” value is given as 4.14 10^3 deg cm^2 dmol^-1, the random coil amounted to 49% and the α helices is 13%. Besides, the β sheet in data set [5] (pH 8) was 38%. Besides, in data set [5] (pH 10), the “−θ222 × 10^3” value is reported as 3.40 10^3 deg cm^2 dmol^-1, the “−θmin × 10^3” value was 3.89 10^3 deg cm^2 dmol^-1, the random coil is 52% and the α helices is listed as 16%. Further, the β sheet in data set [5] (pH 10) was 32%. Also, in data set [3], the “fiber formation seen by TEM” value is on record as “not been observed to form fibers”. The “fiber formation seen by confocal microscopy” value in data set [4] is “No fibers were seen”.

B1: wt: coiled-coil region of cartilage oligomeric matrix protein with the two cysteines replaced by serines, SEQ ID NO:4 (protein)
chain: MRGSHHHHHHGSGDLAPQMLRELQETNAALQDVRELLRQQVKEITFLKNTVMESDASGKLN
modifications: human
The term Tm denotes the temperature at the midpoint of the melting transition. As to B1, in data set [5] (pH 4), the “−θ222 × 10^3” value is 13.18 10^3 deg cm^2 dmol^-1, the “−θmin × 10^3” value was 13.02 10^3 deg cm^2 dmol^-1, the random coil came to 32% and the α helices was 50%. In data set [5] (pH 4), this molecule came in with a β sheet of 18%. Also, in data set [5] (pH 8), the “−θ222 × 10^3” value is 18.28 10^3 deg cm^2 dmol^-1, the “−θmin × 10^3” value is recorded as 17.61 10^3 deg cm^2 dmol^-1, the random coil is 30% and the α helices was 64%. For the same molecule, in data set [5] (pH 8), the β sheet came out at 6%. In addition, in data set [5] (pH 10), the “−θ222 × 10^3” value is on record as 17.84 10^3 deg cm^2 dmol^-1, the “−θmin × 10^3” value was 17.13 10^3 deg cm^2 dmol^-1, the random coil is recorded as 31% and the α helices is reported as 63%. In data set [5] (pH 10), this molecule came in with a β sheet of 6%. In addition, the “fiber diameters (known)” value in data set [6] is listed as 10-15 nm. Further, in data set [7] (pH 4), the “ΔH° (van't Hoff enthalpy)” value is -29.9 kcal/mol, the Tm is 48.2 °C, the “ΔG° (free energy of folding)” value is -2.2 kcal/mol and the ΔS° was -93 cal/(mol·K). Also, in data set [7] (pH 8), the “ΔH° (van't Hoff enthalpy)” value was -31.0 kcal/mol, the Tm is 48.8 °C, the “ΔG° (free energy of folding)” value is -2.3 kcal/mol and the ΔS° is -96.6 cal/(mol·K). In data set [7] (pH 10), the “ΔH° (van't Hoff enthalpy)” value was -29.8 kcal/mol, the Tm was 46.3 °C, the “ΔG° (free energy of folding)” value is -2.0 kcal/mol and the ΔS° was -93.3 cal/(mol·K). Besides, in data set [3] (pH 8, 10 mM PB), the fiber diameters was determined as 17±3 nm. Also, the width of fibers in data set [4] (12 hours) stood at 12.72 μm.
